# Laboratory results published in the supplement of paper PMC9112550, “Optimization of the antimicrobial peptide Bac7 by deep mutational scanning” (BMC Biology, 2022).
# System: Escherichia coli TOP10
# Assay: shrunken log2 fold change of peptide-encoding DNA abundance (4.5 h post-induction vs induction); higher = less antimicrobial activity (less host growth inhibition)
# Settings: time post-induction: 4.5 h; library: site-saturation at positions 5, 18, 19, 20
# 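Further: peptides expressed intracellularly from a pBAD plasmid library in pooled LB shake-flask culture, induced with 0.3% L-arabinose, DNA abundance read by NGS, three biological replicates, DESeq2 with apeglm shrinkage.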
row,Sequence,shrunken log2 fold change
1,RRIRPRPPRLPRPRPRPTCIPRP,-0.146
2,RRIRHRPPRLPRPRPRPVVIPRP,-0.759
3,RRIRWRPPRLPRPRPRPHRNPRP,-0.255
4,RRIRKRPPRLPRPRPRPAYMPRP,0.0668
5,RRIRARPPRLPRPRPRPTPCPRP,0.323
6,RRIRIRPPRLPRPRPRPSTLPRP,-0.726
7,RRIRIRPPRLPRPRPRPPNSPRP,0.0359
8,RRIRRRPPRLPRPRPRPKHLPRP,0.0709
9,RRIRIRPPRLPRPRPRPSLWPRP,0.211
10,RRIRPRPPRLPRPRPRPWLPPRP,-0.0294
11,RRIRRRPPRLPRPRPRPFWWPRP,0.528
12,RRIRMRPPRLPRPRPRPRQMPRP,0.862
13,RRIRARPPRLPRPRPRPHWYPRP,0.157
14,RRIRRRPPRLPRPRPRPGAWPRP,-9.3e-05
15,RRIRWRPPRLPRPRPRPQIWPRP,0.0603
16,RRIRERPPRLPRPRPRPYGRPRP,-0.264
17,RRIRMRPPRLPRPRPRPAMFPRP,0.388
18,RRIRYRPPRLPRPRPRPAAVPRP,0.0751
19,RRIRKRPPRLPRPRPRPWTRPRP,-0.0844
20,RRIRWRPPRLPRPRPRPFGLPRP,0.0452
21,RRIRKRPPRLPRPRPRPWHPPRP,0.143
22,RRIRQRPPRLPRPRPRPPYDPRP,-0.152
23,RRIRMRPPRLPRPRPRPPSWPRP,0.245
24,RRIRWRPPRLPRPRPRPWDHPRP,-0.0185
25,RRIRIRPPRLPRPRPRPLWCPRP,-0.067

row,Sequence,shrunken log2 fold change
1,RRIRSRPPRLPRPRPRPSYEPRP,-0.426
2,RRIRLRPPRLPRPRPRPYDNPRP,-1.57
3,RRIRFRPPRLPRPRPRPKHVPRP,-0.0891
4,RRIRRRPPRLPRPRPRPVEKPRP,-0.00451
5,RRIRQRPPRLPRPRPRPSCNPRP,-0.683
6,RRIRDRPPRLPRPRPRPFYGPRP,-0.108
7,RRIRDRPPRLPRPRPRPTLIPRP,0.0896
8,RRIRQRPPRLPRPRPRPPYVPRP,0.191
9,RRIRTRPPRLPRPRPRPTMLPRP,3.82
10,RRIRNRPPRLPRPRPRPYWNPRP,-0.108
11,RRIRPRPPRLPRPRPRPCHNPRP,0.156
12,RRIRWRPPRLPRPRPRPCPPPRP,-0.463
13,RRIRNRPPRLPRPRPRPAKVPRP,-0.0027
14,RRIRERPPRLPRPRPRPEIDPRP,-0.00826
15,RRIRKRPPRLPRPRPRPGCCPRP,0.722
16,RRIRMRPPRLPRPRPRPEDKPRP,2.94
17,RRIRERPPRLPRPRPRPRTSPRP,0.0838
18,RRIRNRPPRLPRPRPRPRNNPRP,-0.45
19,RRIRMRPPRLPRPRPRPDTPPRP,0.872
20,RRIRWRPPRLPRPRPRPCMTPRP,0.317
21,RRIRNRPPRLPRPRPRPIQMPRP,-0.0365
22,RRIRFRPPRLPRPRPRPENNPRP,-0.285
23,RRIRKRPPRLPRPRPRPRKHPRP,0.328
24,RRIRNRPPRLPRPRPRPVWTPRP,-0.118
25,RRIRVRPPRLPRPRPRPFMQPRP,-0.285

row,Sequence,shrunken log2 fold change
1,RRIRHRPPRLPRPRPRPNTSPRP,-0.534
2,RRIRTRPPRLPRPRPRPIIDPRP,-0.000898
3,RRIRYRPPRLPRPRPRPDNNPRP,-0.189
4,RRIRARPPRLPRPRPRPHQPPRP,-0.115
5,RRIRFRPPRLPRPRPRPHFNPRP,-0.692
6,RRIRVRPPRLPRPRPRPFYVPRP,1.07
7,RRIRLRPPRLPRPRPRPCSWPRP,-0.0168
8,RRIRCRPPRLPRPRPRPEMNPRP,-0.036
9,RRIRWRPPRLPRPRPRPIAKPRP,-0.283
10,RRIRGRPPRLPRPRPRPPKTPRP,1.15
11,RRIRLRPPRLPRPRPRPIVTPRP,2.68
12,RRIRGRPPRLPRPRPRPALSPRP,1.31
13,RRIRNRPPRLPRPRPRPDMQPRP,-0.0295
14,RRIRIRPPRLPRPRPRPHHEPRP,-0.0701
15,RRIRNRPPRLPRPRPRPCNQPRP,0.0223
16,RRIRQRPPRLPRPRPRPTRDPRP,-0.271
17,RRIRFRPPRLPRPRPRPQCAPRP,0.057
18,RRIRPRPPRLPRPRPRPQWHPRP,-0.176
19,RRIRERPPRLPRPRPRPGYHPRP,-0.502
20,RRIRCRPPRLPRPRPRPTTTPRP,-0.0127
21,RRIRIRPPRLPRPRPRPELPPRP,0.0135
22,RRIRPRPPRLPRPRPRPCRFPRP,0.086
23,RRIRARPPRLPRPRPRPHITPRP,-0.294
24,RRIRSRPPRLPRPRPRPTIFPRP,-0.377
25,RRIRKRPPRLPRPRPRPEKTPRP,-0.000942
